Test results taken from a protein production outcome set (Wang et al. 2014).

Assay: label from the status in PepcDB records

Sequence	protein production
MHVYESDVSWIDDRRTEVSVGDHRIEVDSPPEFGGPEGQLYPETLFPSVLASCLLTTFLEFKDRMGINLKSWNSHVTAELGPSPEKGFKFHRIKIHVKIGVNDEDKEKIPRAMQLAEKYCFISRAIRNNVEEIVDYEFV	not failed
MHSGLNPQDIAFLKTIIAFFFLSVFLFKVPVSQKIAYISSTPSKLSVFTQIAICAFLGIFSLFFFETIAYNHGAAANVVVVLMASAAISALFFGRLILKESIYINSLIGTLLAVAGISIISWKGENSLLMLINASIAGTGYGLFSVLVKKFKLNGGLFLTKYLLLFGSVYLAVPFLVNLHAIHFNIDIVLGLIGLAVLPTILGFFCTTKALSYMSAAKVQVTELSEPIFAALMAWVFIHEQPTLSFLYGAIFIISGIFVMNRAPKSN	failed
MTHEAMSPGEWKAKGGGLTIRYGFHASPFGLALVMITDRGLAGCAFADPGDERACFEDMAGRWPNADYVEDREATAPYAARIFEPAMWTADKPLRVVLEHHHHHH	not failed
MEHWNKTFCLEVKGDYACFTRPEMKVERVSYDVITPSAARGIFEAIFWKPAIRWRIRKIEVLNPIKWISVRRNEVGQTASERSDGIFIETARQQRAGLFLRDVAYRLHAELEFVPPSERPDAKRPVPESLQDGRETSELRKDENPGKYYAIFERRARKGQCFNQPYLGCREFSCEFRLVDDLANEPPPISETRNLGFMLYDLDFQKNLKEPPPAFFPACLEKGVIKVPDWESEEVRK	failed
MPQNQLVITIIDESGSKQLKFSKNLKRNLIISVVIFLLIVGLGVGFLKFLIAKMDTMTAERNAVLRDFRDLYQKNYTLTKEIKNKREELFIVGQKIRTIESLIEVKRGANGGVHLYDEVDLDNLNLAQKHLALMLIPNGMPIKTYSAIKPTKERNHPIKKIKGVESGIDFIAPLNTPVYASADGIVDFVKTNSNVGYGNLVRIEHAFGFSSIYTHLDHVNVQPKSFIQKGQLIGYSGKSGNSGGEKLHYEVRFLGKILDAQKFLAWDLDHFQSALEENKFIEWKNLFWVLEDIVQLQEHVDKDALISQ	failed
MNKLDGIPIPKTYGPLGNLPLLDKNRVSQSLWKIADEMGPIFQFKFADAIGVFVSSHELVKEVSEESRFDKNMGKGLLKVREFSGDGLFTSWTEEPNWRKAHNILLPSFSQKAMKGYHPMMQDIAVQLIQKWSRLNQDESIDVPDDMTRLTLDTIGLCGFNYRFNSFYREGQHPFIESMVRGLSEAMRQTKRFPLQDKLMIQTKRRFNSDVESMFSLVDRIIADRKQAESESGNDLLSLMLHAKDPETGEKLDDENIRYQIITFLIAGHETTSGLLSFAIYLLLKHPDKLKKAYEEADRVLTDPVPSYKQVQQLKYIRMILNESIRLWPTAPAFSLYAKEETVIGGKYLIPKGQSVTVLIPKLHRDQSVWGEDAEAFRPERFEQMDSIPAHAYKPFGNGQRACIGMQFALHEATLVLGMILQYFDLEDHANYQLKIKESLTLKPDGFTIRVRPRKKEAMTAMPGAQPEENGRQEERPSAPAAENTHGTPLLVLYGSNLGTAEEIAKELAEEAREQGFHSRTAELDQYAGAIPAEGAVIIVTASYNGNPPDCAKEFVNWLEHDQTDDLRGVKYAVFGCGNRSWASTYQRIPRLIDSVLEKKGAQRLHKLGEGDAGDDFEGQFESWKYDLWPLLRTEFSLAEPEPNQTETDRQALSVEFVNAPAASPLAKAYQVFTAKISANRELQCEKSGRSTRHIEISLPEGAAYQEGDHLGVLPQNSEVLIGRVFQRFGLNGNEQILISGRNQASHLPLERPVHVKDLFQHCVELQEPATRAQIRELAAHTVCPPHQRELEDLLKDDVYKDQVLNKRLTMLDLLEQYPACELPFARFLALLPPLKPRYYSISSSPQLNPRQTSITVSVVSGPALSGRGHYKGVASNYLAGLEPGDAISCFIREPQSGFRLPEDPETPVIMVGPGTGIAPYRGFLQARRIQRDAGVKLGEAHLYFGCRRPNEDFLYRDELEQAEKDGIVHLHTAFSRLEGRPKTYVQDLLREDAALLIHLLNEGGRLYVCGDGSRMAPAVEQALCEAYRIVQGASREESQSWLSALLEEGRYAKDVWDGGVSQHNVKADCIART	failed
MRVPALKPILLQLHSVAGLVLAAVLVLVALTGAVMSFEDEIRGALDAGRVQLAPHAGSRMPLDALIAKLQAGGDPVASITMPRSAASAAEVRFARKPDHTRPAPLYLDPYTGESLGHPAADAFFATVRKLHRWLLLPGDGNGYGRTITGVAALGLLAMLLTGLVLRWPHRPGSIKVWLKPHWQLRGRGLHRSLHAVIGTWVLLLYLIMTLTGLWWSFDWYKTAATWLLARSPVTMQPPNRAAVTAAPSAAISLDRVWATLVAERGDRFEAARLTLPSGREGTVRVRAWLTDARDGAHDEFRIDGRSGQVLSADIYADKTIGEKVLARVLDIHRGSIFGWPGQLLFMLAAAAMPLFGVTGVLLYLSRRRHQRMQRAARAKVG	failed
MTAAQFAALSPLVVLAIAAVAAMMLVPLARLQIVQASAAAGLAIAAALVLLRIGAPAAPMGALFTDDGPARFGIVFACLVSLGALVFLRTGHPAKEAPSLLVLVAIGAATLAGAGHAATLFLGIEILSLSLIALFAFRLTRQGLEAAYKFLVMSGLASSALLLGIALIFAETGALDFAGWGGRGALTAFGTALLLAGLAFKFSLVPFHMWTPDAFEAAPASAATLAGVVSKSAVAIVILRLALTAHLPEPVWSQGLAALGGASVLIGNLLALRQPQLPRMLGYSTIAHSGYIALIIASGTPHAGEAVLFYLAIYAPAMLGALCVSAALGRAPTLPDLHGLMKRRPLEAIALSLSLLSLAGLPAAGGFIAKLFLLRVLIDGSLWVLVGIVVAGSSLGFFYYAKFFTAPFVGHTHDESEPLPQLDRGLLIVCIALIVIFGVAPAGLMNVVAATMAP	failed
MKGDRHCIVIIDMLNDFIGPNAPLRCPDGEKIVPNLQKLVEFAHENGINVVFVQEAHRKNDADFRVRPVHAVKGTWGSDFIPELRPDEEKGDYIVQKRRHSAFAYTDLDLYLREEKIDTVVVTGVWTNVCVRSTASDALYHAYNVIAISDCCASANEEMHQAGLRDMALFAEVMTLEEYMKEWPNREGAKK	not failed
MTSSTETTATTPQVAVNDIGNEEAFLAAIDETIKYFNDGDIVDGVIVKVDRDEVLLDIGYKTEGVIPSRELSIKHDVDPNEVVAVGDEIEALVLQKEDKEGRLILSKKRAQYERAWGTIEKIKEEDGIVTGTVIEVVKGGLILDIGLRGFLPASLVEMRRVRDLQPYVGKELEAKIIELDKNRNNVVLSRRAWLEQTQSEVRQTFLTTLQKGQVRSGVVSSIVNFGAFVDLGGVDGLVHVSELSWKHIDHPSEVVEVGQEVTVEVLDVDMDRERVSLSLKATQEDPWQQFARTHQIGQVVPGKVTKLVPFGAFVRVDEGIEGLVHISELAERHVEIPEQVVQVNDEIFVKVIDIDLERRRISLSLKQANEAFGADPSTVEFDPTLYGMAASYDDQGNYIYPEGFDPETNDWLEGYETQREAWETQYAEAQTRFEQHQAQVIKSREADEKAAAEGVDTAGAAPAASGGGGGGSYSSEGGDNSGALASDEALAALREKLAGGQS	failed
MNSNRSLLVMGLLLVSFLIFTQWQQDFNPEIQAQKQAQQQSRDVPHATNTANAITEHMTKGKTITVESDVLRLVIDTLGGDVIESDLLAHKASLDSTDPLKLLTTEGLIYTAQSGLVGKNGIDTHIGRAPYQVTQDHFTLAKGQNEIVVPMTFEQDGVMYTKTFTLKRGSYDVAVSFDIQNNSANTIEVQPYGQIKHSLLDSSGNLAMPTYTGGAYSSSETNYKKYSFDEMTKANLNIDTKGGWVALLQHYFVSAWVPNQDASNTLYSRTHNGVATIGYRGPITTVKPNTKTTITSQLWTGPKDQKEMAQAATHLELTVDYGWAWFIAKPLFWLLIFIHSIIGNWGLAIMGVTLVVKSLLYPLTKAQYTSMAKMRMLQPKLQELRERYGDDRQQMSQEMMKLYKQEKVNPMGGCLPLILQMPIFIALYWTFMEAVELRHAPFFGWIQDLSAQDPYYIFPVLMGLSMFLLQKMSPTAVADPTQLKVMTFMPVIFTVFFLWFPSGLVLYWLTSNCITIVQQWLIYRNLEKKGLHTRKK	failed
MTEMHRLLQRQLKKFGFTADGLPQNLESWTQFIAHINKTYYENDQDRYLLERSIDISSKEMRDINAKLEYAQDIAQIGYWHYDADTDTATWSKGLFKILGLPPSNVALNYSSFLDLVHPNDKAGLKNVVEKALKEKEDYDYELRVRNGDNDYKWYRTIARANPHKNEISGVLMDISKRKIIEEQVHELNNKLVSTARLAGMSEVATSILHNVGNILNSVNVSAIILKKNISKIHYKKLSAIKTMLDENINQLSEYLLQNPKGKLILPYLDALSKTLHEEYEENMKESNSLETNINHIKEIIAMQQSLSGLSNLTEKISIHDVILNAVKSVILDKHQIDVRIEIEPDINEFITDKSKLFQILTNLLANAKDSVLLHEANDSRKVVISIGRTEKNHIMIKINDNGIGIQKDNLDRIFSFGFTTKKNGHGFGLHCSAIYARDLGGTLYAESNGNGKGAQFVLDLPINPKTLSTR	failed
MGRLFVVNLEGKIYSCKHCKTHLATYEDIISKSFHCKHGKAYLFNKVANVSIGETEERLMMTGKHTVADIFCVSCGSIVGWKYETAHEKNQKYKEGKSVLERFKISGPDGSNYWVSSHGRHIGGSDADDA	failed
MNEQPNNENITQSASRDLQIIEDDAFSYEGYQVVRGEFFAHTYEPSFTFNANKVSVNTACIKKLPQTDFVQILVNPDEKKLAVRPCQEDEKDSFRWCSATKKRSPRQITCRIFFAKVISLMEWNPSYRYKLLGKLIRSDNELLFVFDLTTPEIYVRAEKEDGKIKTSRTPTYPAEWQNQFGVPVEEHQSNLQINMFDGYAVFGILEHHHHHH	not failed
MKPFMNNTKQLKRPLLNKQELALFAATILWGITFLVIHIAVRYSGPLFFVGFRFMVASLICGAIFWRSLKGITVYEIFAGMAIGLGMFLGYALQATGLQTIISSQSAFITALYVPIVPILQWIVFKKPPRLACWLGIIFAFIGLILISGKKSGSFDFSKGEILTLLGALAIAGEVILIGIFAHKVDSRRVTIIQLFFSGLFSFFCMPFIGESIPPFSWVWLNIGIGLALMSAIIQLAMNWAQKSISPTRATLIYAGEPVWAGIVGRLAGEHLSPLALLGGALILIGIVVAELQPSQWRKKKNNLKK	failed
DKIHMLKQQNIIGIGTHNGITTIHTTNHKYETTEPLNRYEKRLNPTYFIRIHRSYIINTKHIKEVQQWFNYTYMVILTNGVKMQVGRSFMKDFKASIGLL	failed
MMNTITNIVSYLPYLFAWFLLGYMGIVVLVYTGMLLLSVVQLKREQKLNKQEVYDDYLELTYTKPVSILVPAYNEETGIIETVRSLLSLKYPQTEIVVVNDGSTDQTLEVIIEHFQMVKVGKVIRKQIETEPIKGVYQSTIFPHLLLVDKSNGGKADALNAGLNVSKYPYFCSIDGDSILETDALLKVMKPIVTSRDDEDEVIASGGNVRIANGSDIQMGSVLSVQLAKNPLVVMQVIEYLRAFLMGRIGLSRHNMVLIISGAFSVFAKKWVMEAGGYSKKTVGEDMELVVRLHRLVKEKRLKKRITFVPDPVCWTEAPATFRVLQRQRSRWHRGLMESLWLHRGMTFNPKYGLVGTASIPYFWIVEFFGPVVELMGYLYIVFAFFFGGLYVEFALALFLLFVLYGTVFSMTAVILEGWSLKRYPKVSDMSRLMIFSLFEALWYRPLTVLWRFGAIIEALFRSKAWGEMTRKGLTKAEQKAS	failed
MKSEFYQGKIKQYDATKGFGFIGGLEQDVFFHISDFPLEEGEPKRNERVKFMVVENNGKFKAVKIQRVVDQSAKAKKSRAVENNTSITSALLSNFKK	failed
MKILWLIILVNLFLSCGNESKEKSNLGLRLRELEISGGGSESKIEVYKEFIEKEDKNILKIVNSIDKKARFFNLIGLEFFKLGQYGPAIEYFAKNLEINPNNYLSHFYIGVASYNLAKNLRVKDEVEKYIILAENSFLKSLSIRDDFKDSLFAISNMYVYDLDKQLEAKNYLNKLGDMGEDYFEFLMLRGANYYSLGDLGNAILFYDKASKKASTEEQKEGVSRIMSNLK	failed
MSTTTRISTAERLGRALGRGWRAYARSERRASNWLVSKGVPLAAAAALLWAGKLAVLGLLLYVAFWLALLLVALVFVARGHDTVEWEPPEPEWRHGHAGFGLYTHDEYRIDSHDPSDET	failed
